Experimental data: article PMC6292502 (Nature structural & molecular biology, 2018)

B1: Ndc10 (natural protein)
chain: MRSSILFLLKLMKIMDVQQQQEAMSSEDRFQELVDSLKPRTAHQYKTYYTKYIQWCQLNQIIPTPEDNSVNSVPYKDLPISAELIHWFLLDTLITDDKPGEKREETEDLDEEEENSFKIATLKKIIGSLNFLSKLCKVHENPNANIDTKYLESVTKLHTHWIDSQKAITTNETNNTNTQVLCPPLLKVSLNLWNPETNHLSEKFFKTCSEKLRFLVDFQLRSYLNLSFEERSKIRFGSLKLGKRDRDAIIYHKVTHSAEKKDTPGHHQLLALLPQDCPFICPQTTLAAYLYLRFYGIPSVSKGDGFPNLNADENGSLLQDIPILRGKSLTTYPREETFSNYYTTVFRYCHLPYKRREYFNKCNLVYPTWDEDTFRTFFNEENHGNWLEQPEAFAFPDKIPFDFKKIMNFKSPYTSYSTNAKKDPFPPPKDLLVQIFPEIDEYKRHDYEGLSQNSRDFLDLMEVLRERFLSNLPWIYKFFPNHDIFQDPIFGNSDFQSYFNDKTIHSKGSPILSFDILPGFNKIYKNKTNFYSLLIERPSQLTFASSHNPDTHPTQKQESEGPLQMSQLDTTQLNELLKQQSFEYVQFQTLSNFQILLSVFNKIFEKLEMKKSSRGYILHQLNLFKITLDERIKKSKIDDADKFIRDNQPIKKEENIVNEDGPNTSRRTKRPKQIRLLSIADSSDESSTEDSNVFKKDGESIEDGAYGENEDENDSEMQEQLKSMINELINSKISTFLRDQMDQFELKINALLDKILEEKVTRIIEQKLGSHTGKFSTLKRPQLYMTEEHNVGFDMEVPKKLRTSGKYAETVKDNDDHQAMSTTASPSPEQDQEAKSYTDEQEFMLDKSIDSIEGIILEWFTPNAKYANQCVHSMNKSGNKSWRANCEALYKERKSIVEFYIYLVNHESLDRYKAVDICEKLRDQNEGSFSRLAKFLRKWRHDHQNSFDGLLVYLSN
B2: CEN3 DNA (147 bp CEN3) (dsDNA)
DNA 1: ATCAAATAGTACAAATAAGTCACATGATGATATTTGATTTTATTATATTTTTAAAAAAAGTAAAAAATAAAAAGTAGTTTATTTTTAAAAAATAAAATTTAAAATATTAGTGTATTTGATTTCCGAAAGTTAAAAAAGAAATAGTAAGAAGAT
DNA 2: ATCTTCTTACTATTTCTTTTTTAACTTTCGGAAATCAAATACACTAATATTTTAAATTTTATTTTTTAAAAATAAACTACTTTTTATTTTTTACTTTTTTTAAAAATATAATAAAATCAAATATCATCATGTGACTTATTTGTACTATTTGAT

What was measured:
cryo-EM structure = biological target: the molecule itself; experiment: cryo-EM structure
Cep3;Ctf13;Skp1;Ndc10 = Cep3;Ctf13;Skp1;Ndc10 (Saccharomyces cerevisiae;Saccharomyces …, UniProt P40969;P35203;P52286;P32504 1-608;1-478;1-194;1-956, |||); experiment: cryo-EM
Chain of Cep3;Ctf13;Skp1;Ndc10 (P40969 whole entry, chain 1 of 3): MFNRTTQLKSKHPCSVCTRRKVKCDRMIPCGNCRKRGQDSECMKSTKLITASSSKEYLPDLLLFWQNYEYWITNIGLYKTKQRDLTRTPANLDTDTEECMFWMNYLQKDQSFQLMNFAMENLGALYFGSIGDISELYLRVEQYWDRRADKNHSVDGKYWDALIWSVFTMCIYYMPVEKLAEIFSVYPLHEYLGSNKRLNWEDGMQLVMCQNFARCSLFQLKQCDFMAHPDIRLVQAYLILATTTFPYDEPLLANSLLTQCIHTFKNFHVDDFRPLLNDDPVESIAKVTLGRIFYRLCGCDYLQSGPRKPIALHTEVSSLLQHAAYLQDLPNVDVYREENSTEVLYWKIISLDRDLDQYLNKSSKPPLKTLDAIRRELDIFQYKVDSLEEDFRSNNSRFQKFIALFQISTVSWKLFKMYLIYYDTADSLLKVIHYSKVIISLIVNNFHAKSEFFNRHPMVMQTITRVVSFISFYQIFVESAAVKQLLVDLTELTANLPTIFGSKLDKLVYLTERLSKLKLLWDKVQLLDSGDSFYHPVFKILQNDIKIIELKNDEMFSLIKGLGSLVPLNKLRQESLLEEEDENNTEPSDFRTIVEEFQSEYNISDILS
Chain of Cep3;Ctf13;Skp1;Ndc10 (P35203 whole entry, chain 2 of 3): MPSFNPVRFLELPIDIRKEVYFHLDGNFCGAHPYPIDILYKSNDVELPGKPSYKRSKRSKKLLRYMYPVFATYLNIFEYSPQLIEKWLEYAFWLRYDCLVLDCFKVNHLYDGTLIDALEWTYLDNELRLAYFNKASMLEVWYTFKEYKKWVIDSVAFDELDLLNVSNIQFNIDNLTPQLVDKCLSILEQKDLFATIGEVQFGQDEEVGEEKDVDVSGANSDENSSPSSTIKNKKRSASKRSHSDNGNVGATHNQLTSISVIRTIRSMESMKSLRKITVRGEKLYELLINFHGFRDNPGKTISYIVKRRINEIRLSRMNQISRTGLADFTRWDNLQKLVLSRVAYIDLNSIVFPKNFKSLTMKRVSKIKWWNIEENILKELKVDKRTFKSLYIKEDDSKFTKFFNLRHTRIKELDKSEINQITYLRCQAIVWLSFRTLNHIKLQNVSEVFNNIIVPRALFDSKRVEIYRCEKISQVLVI
Chain of Cep3;Ctf13;Skp1;Ndc10 (P52286 whole entry, chain 3 of 3): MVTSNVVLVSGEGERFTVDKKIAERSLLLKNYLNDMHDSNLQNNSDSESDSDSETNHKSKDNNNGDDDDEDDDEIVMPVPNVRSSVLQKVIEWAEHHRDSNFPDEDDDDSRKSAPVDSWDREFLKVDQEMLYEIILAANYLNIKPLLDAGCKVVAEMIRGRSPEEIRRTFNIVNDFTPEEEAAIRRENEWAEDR

Row | Binder | binding result (cryo-EM structure) | binding result (Cep3;Ctf13;Skp1;Ndc10)
1 | B1 | binds | –
2 | B2 | – | binds
